# Test results published in article PMC4703881.
# Molecular target: wild-type T7 DNA polymerase (gp5 with E. coli thioredoxin) (bacteriophage T7 | E. coli) (UniProt P00581)
# Sequence (P00581 whole entry, chain 1 of 2): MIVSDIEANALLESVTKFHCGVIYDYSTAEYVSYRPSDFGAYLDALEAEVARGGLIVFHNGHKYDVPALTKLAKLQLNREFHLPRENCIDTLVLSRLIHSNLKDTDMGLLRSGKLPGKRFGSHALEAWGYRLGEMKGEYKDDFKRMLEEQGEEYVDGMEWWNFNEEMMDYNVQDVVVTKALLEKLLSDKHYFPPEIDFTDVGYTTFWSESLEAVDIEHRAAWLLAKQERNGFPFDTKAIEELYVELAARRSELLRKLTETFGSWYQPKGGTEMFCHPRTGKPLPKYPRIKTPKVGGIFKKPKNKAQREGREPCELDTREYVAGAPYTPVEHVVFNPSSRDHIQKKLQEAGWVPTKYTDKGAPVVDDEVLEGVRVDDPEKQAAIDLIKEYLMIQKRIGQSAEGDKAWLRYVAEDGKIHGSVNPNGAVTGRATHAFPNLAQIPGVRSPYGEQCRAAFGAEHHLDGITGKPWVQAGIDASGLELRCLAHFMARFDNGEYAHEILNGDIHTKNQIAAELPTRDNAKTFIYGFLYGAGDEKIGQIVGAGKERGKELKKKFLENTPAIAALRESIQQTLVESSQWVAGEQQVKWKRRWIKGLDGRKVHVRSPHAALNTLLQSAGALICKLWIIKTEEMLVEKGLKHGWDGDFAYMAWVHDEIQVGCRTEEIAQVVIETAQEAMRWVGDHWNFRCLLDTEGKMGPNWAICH
# Sequence (P0AA25 whole entry, chain 2 of 2, further chain): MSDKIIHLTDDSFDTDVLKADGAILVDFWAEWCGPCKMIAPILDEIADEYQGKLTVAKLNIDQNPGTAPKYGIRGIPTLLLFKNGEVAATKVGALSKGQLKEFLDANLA
# Chain of wild-type T7 helicase (gp4) (P03692 whole entry): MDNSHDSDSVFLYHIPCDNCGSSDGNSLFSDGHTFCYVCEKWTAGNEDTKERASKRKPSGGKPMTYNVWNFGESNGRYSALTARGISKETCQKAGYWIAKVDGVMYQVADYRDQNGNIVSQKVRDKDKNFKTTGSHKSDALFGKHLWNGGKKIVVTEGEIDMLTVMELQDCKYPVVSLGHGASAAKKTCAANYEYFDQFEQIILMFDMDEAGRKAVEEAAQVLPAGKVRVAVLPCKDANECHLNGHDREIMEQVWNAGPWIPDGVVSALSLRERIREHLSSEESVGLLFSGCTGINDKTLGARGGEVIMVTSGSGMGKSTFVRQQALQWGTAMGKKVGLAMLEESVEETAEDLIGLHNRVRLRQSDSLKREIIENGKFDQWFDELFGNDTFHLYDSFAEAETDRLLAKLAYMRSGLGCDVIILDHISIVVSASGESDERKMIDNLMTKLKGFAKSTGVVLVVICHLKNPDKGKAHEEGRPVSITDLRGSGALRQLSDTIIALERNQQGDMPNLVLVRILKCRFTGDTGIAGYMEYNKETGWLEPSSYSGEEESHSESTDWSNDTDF
substance,measurement,value
wild-type T7 helicase (gp4) (from UniProt P03692 1-566) (enzyme),"fraction of single-molecule traces with continued leading-strand synthesis at high rate past a leading-strand CPD lesion, wt DNAP with wt helicase, 6 pN, 0.5 mM dNTP",28 % of traces
